Target: SARS-CoV-2 S ectodomain trimer (SΔTM), wild type (SARS-CoV-2, UniProt P0DTC2)
Experiment: SPR

B1: neutralizing monoclonal antibody 4A8 (NTD-directed), human IgG1 kappa (antibody, V domains shown)
VH: EVQLVESGAEVKKPGASVKVSCKVSGYTLTELSMHWVRQAPGKGLEWMGGFDPEDGETMYAQKFQGRVTMTEDTSTDTAYMELSSLRSEDTAVYYCATSTAVAGTPDLFDYYYGMDVWGQGTTVTVSS
VL: EIVMTQSPLSSPVTLGQPASISCRSSQSLVHSDGNTYLSWLQQRPGQPPRLLIYKISNRFSGVPDRFSGSGAGTDFTLKISRVEAEDVGVYYCTQATQFPYTFGQGTKVDIK
Kd: 420 ± 70 pM
